Patent publication US20260166140A1, “Combinations Involving Epidermal Growth Factor Receptor Tyrosine Kinase Inhibitors For the Treatment of Cancer” (AstraZeneca AB, priority 2022, published 2026)

B1: B09/IgG: single-arm specific control antibody molecule with B09 cMET arm (antibody, V domains shown)
VH: QVQLVQSGAEVKKPGASVKVSCKASGYTFTDYYIHWVRQATGQGLEWMGWMNPNSGNTGYAQKFQGRVTMTRDTSISTAYMELSSLRSEDTAVYYCARGQGYTHSWGQGTMVTVSS
VL: DIQMTQSPSTLSASVGDRVTITCRASEGIYHWLAWYQQKPGKAPKLLIYKASSLASGVPSRFSGSGSGTEFTLTISSLQPDDFATYYCQQYSNYPPTFGGGTKLEIK
modifications: left off: another chain or arm of the molecule; a dimerising Fc or GST; small tags and cut ends
B2: RAA22/IgG: single-arm specific control antibody molecule with RAA22 EGFR arm (antibody, V domains shown)
VH: QVQLVQSGAEVKKPGSSVKVSCKASGGTFSDNDFSWVRQAPGQGLEWMGAIVAVFRTETYAQKFQDRVKITADISTRTTYMELSSLRSEDTAVYYCARRLMSAISGPGAPLLMWGQGTLVTVSS
VL: QSALTQPRSVSGSPGQSVTISCTGTSSDVGGYNYVSWYQQHPGKAPKLMIYDVSKRPSGVPDRFSGSKSGNTASLTISGLQAEDEADYYCSSYTSSDTLEIFGGGTKLTVL
B3: QD6/IgG: single-arm specific control antibody molecule with QD6 EGFR arm (antibody, V domains shown)
VH: QVQLVQSGAEVKKPGSSVKVSCKASGGTFSDNDFSWVRQAPGQGLEWMGAIVAVVRTETYAQKFQDRVKITADISTRTTYMELSSLRSEDTAVYYCARRLMSAISGPGAPLLMWGQGTLVTVSS
VL: QSALTQPRSVSGSPGQSVTISCTGTSSDVGGYNYVSWYQQHPGKAPKLMIYDVSERPSGVPDRFSGSKSGNTASLTISGLQAEDEADYYCFSYTSSDTLEIFGGGTKLTVL

How the values were obtained:
H1975 cells = assay: Internalization of AF647-labeled antibodies, live cell confocal fluorescence microscopy; format: cell-based; settings: for internalization profile: single-arm control antibodies
Protocol: (§1) Internalization kinetics of AlexaFluor647 (AF647) primary-labeled DuetMabs: RAA22/B09 and QD6/B09 antibodies was assessed in vitro using the EGFR and c-MET expressing cell line, H1975. Each antibody was pre-bound to cells and antibody translocation from cell surface to cytoplasm was then monitored using live cell confocal fluorescence microscopy. Both antibodies localized primarily on the cell surface before (T=0) subjecting to internalization conditions and were translocated to the cytoplasm area after 1 hour (data not shown). Kinetic images were taken every 5 min over the time course of internalization and were processed using a quantitative algorithm to determine internalization kinetic constants and half-times.
To evaluate the mode of antibody internalization and to investigate contribution of each arm to overall internalization of the DuetMabs, we evaluated internalization of single-arm specific control antibody molecules, QD6/IgG and B09/IgG, against duet QD6/B09, and RAA22/IgG and B09/IgG against duet RAA22/B09 in H1975 cells, which express both EGFR and c-MET. Since only one arm is specific for the target receptor, the control antibody can only internalize via one receptor eliminating dual receptor targeting and cross-linking as mode of internalization.

HCC827 cells = assay: as above; format: cell-based; settings: HCC827 cells
Protocol: as §1
Since binding of both EGFR and c-MET arms to target receptor promoted RAA22/B09 receptor internalization in H1975 cells, we examined if the increased number of EGFR and c-MET receptors would affect internalization properties. The respective receptor levels determined by Western Blot were ˜33,000 for EGFR and ˜50,000 for c-MET in H1975 cells and ˜790,000 for EGFR and ˜523,000 for c-MET in HCC827 cells.

Molecule	internalization profile (H1975 cells)	internalization profile (HCC827 cells)	number of molecules, fold less than for the RAA22-B09 DuetMab (based on fluorescent intensity) (H1975 cells)	intensity profiles, fold lower than RAA22/B09 (HCC827 cells)
B1	very small level of internalization	dissociates from cell membrane	–	–
B2	rapid internalization	–	10.98 fold	~10 fold
B3	near-identical internalization time course as the QD6/B09 DuetMab	–	–	–
